Measurements published in the supplement of paper PMC9170038.

What was measured:
MS2 coat protein [1] = experiment: apparent KD of MS2 coat protein; designed switch direction (-1 OFF switch, 1 ON switch): 1; higher = weaker reporter binding; details: Eterna round: R98
Method: (§1)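 RNA-MaP: designed FMN/MS2 RNA switches (84 nt design region) are transcribed on-chip within common flanks and titrated with SNAP-549-labelled MS2 coat protein (about 1-3000 nM) in 100 mM Tris pH 7.5, 80 mM KCl, 4 mM MgCl2, without or with 200 uM FMN. Median apparent KD per design; activation ratio = KD,OFF / KD,ON.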

MS2 coat protein [2] = experiment: apparent KD of MS2 coat protein; designed switch direction (-1 OFF switch, 1 ON switch): -1; higher = weaker reporter binding; details: Eterna round: R98
Method: as §1

MS2 coat protein [3] = experiment: apparent KD of MS2 coat protein; higher = weaker reporter binding; details: Eterna round: R101
Method: as §1

Sequence | apparent KD of MS2 coat protein (MS2 coat protein [1]; input ligand: FMN 200 uM) [nM] | apparent KD of MS2 coat protein (MS2 coat protein [1]; input ligand: none) [nM] | other results
GGAUCCAUCACAGGAUAUGCUGGACUUUGUCCAGCAGAAGGGUGAACAUGAGGAUCACCCAUGUAUUGGAUCCAUAUAUUUAAU [Denovo 35] | 94.1 | 1290 | –
CCUGUCGCAUGAGGAUAUGGUCAGCUUUGCUGACCAGAAGGCAUGUCAAUAGACAUGAGGAUCACCCAUGUAGUAAAGACAGGA [Mat - Same State NG 1 - JL Mod - D36] | 36.2 | 395 | –
GUUGCUUUCCGAGGAUAUUCCGGGCGUGGCUAUACAUGAGGAUCACCCAUGUGGCGGAAGCCUAGGGAGAAGGCGGGCUGCUUC [salish99_SSNG2_r2_230] | 16.3 | 17.1 | –
GGGUCGCUUGGAGGAUAUCCAACUAUCCUAGUUGGAGAAGGCCAAGCUACAGAGCUAAGCUUGGAAGUCACUUCGGACCCACAC [pwkr ssNG1 F9.4.5] | 47 | 15.6 | –
UAGAUAUGGUGAGGAUAUGCAGAGGAUCACCCUGUAGAAGGCAUCAGGGUAGAAGGUGCAAGGAUCACCUGUAAGGAUAUAUCC [pwkr2 ssNG1 DX.29] | 917 | 1050 | –
UCAUACAUGAGGAUCACCCAUGACAUGAGGAUCACCCAUGUGCAGGAUAUACGUGAUAUAAUAUAGUAGAAGGGCAGACCAUAA [LRO005_Exclusion NG 3] | – | – | apparent KD of MS2 coat protein (MS2 coat protein [2]; input ligand: FMN 200 uM): 59.1 nM; apparent KD of MS2 coat protein (MS2 coat protein [2]; input ligand: none): 40.6 nM
UCUCUGGAAUACAUGAGGAUCACCCAUGUGUAAACAUUUACACAGGAUAUCGACGUCUGAGACGACGAGAAGGGUGGGCAGCAA [Rexele] | 1000 | 252 | –
ACAUACAUUCGAGGAUAUCGGUGAUUAAUUCUACGAGAAGGCGAUUUAAGAUAUAAUAUUUUAGACAUGAGGAUCACCCAUGUA [JR_SSNG1_Sub036] | 22.9 | 28.3 | –
GGUCCAUCAUGAGGAUAUGGCACCUUAUUGGUGCCAGAAGGCAUGUGUAUUCACAUGAGGAUCACCCAUGUAAUAAAUUGGACC [Pyrimidine booster 8] | 21.5 | 53.2 | –
GACUUGGCUACAUGAGGAUCACCCAUGUUUGACUGGAUCGAUUAGGAUAUAGUGAUUUGCAACAAUUAGAAGGGAUAUUUACGG [byesamestateseeyounextround#3] | 31.3 | 32.9 | –
GAUCCGAGCACAGGAUAUGUUAGAGAGGGUGAGACAGAAGGGUGCUCCGGUAAGGCCAAGCACAUGAGGAUCACCCAUGUACAU [Orbezaen] | 64.9 | 29.7 | –
GCUUGCGACGCAGGAUAUGGGUGCCUGCACACGAGGAUCACCCGUGUAGAGGAAGCGAAAAGCUCUCAGAAGGGCGUCGCAGGC [United States 5 - Jieux - Same State NG 2] | 20.7 | 45.3 | –
GGUUGACGACAAUUACAUGAGGAUCACCCAUGUUGUGGGAUGCAGGAUAUGUGGUAUAUUAUUUAACAGAAGGGCAAUAAUUUU [JR_SSNG3_Sub063] | 54.7 | 32.3 | –
CCCGGUGACUAGAAGGCGCCACAUGAGGAUCACCCAUGUAUCAAAGACCGGUGAUUGCCGACGGGCGAGGAUAUAGGUGCGACG [EternaBot1154] (puzzle (switch architecture): Inverted Exclusion NG 2) | – | – | apparent KD of MS2 coat protein (MS2 coat protein [3]; input ligand: none): 8.19 nM
AAAUAACUUGAAGGAUAUCAGGGUGCACCUCAGUAAAACUGAGGUGCACCCUGAGAAGGUCGAGGAUCACCCGACCUAAAUAAA [#SharedSequence SLExNG1: 6-2] (puzzle (switch architecture): Small Loop Exclusion NG 1) | – | – | apparent KD of MS2 coat protein (MS2 coat protein [3]; input ligand: FMN 200 uM): 7.27 nM; apparent KD of MS2 coat protein (MS2 coat protein [3]; input ligand: none): 5.76 nM
UGUUGUUACGCAGGAUAUUGCCAACAGGCGGUAGGAUAUCCGAAAGGAGAAGGACCGCCAACAGGCGAGAAGGGCGGGUUAACA [pwkr exNG2 2xF7 2FMN.10.1] | – | – | apparent KD of MS2 coat protein (MS2 coat protein [2]; input ligand: FMN 200 uM): 37 nM; apparent KD of MS2 coat protein (MS2 coat protein [2]; input ligand: none): 35.2 nM
AAAUAACUUGAAGGAUAUCAGGGUGCACCUCAGUAAAACUGAGGUGCACCCUGAGAAGGUCGAGGAUCACCCGACCUAGUGAAA [#SharedSequence SLExNG1: 7-2] (puzzle (switch architecture): Small Loop Exclusion NG 1) | – | – | apparent KD of MS2 coat protein (MS2 coat protein [3]; input ligand: FMN 200 uM): 7.19 nM; apparent KD of MS2 coat protein (MS2 coat protein [3]; input ligand: none): 6.8 nM
AAUAUGAGCUGGAAUAUAAAACUCACAUGAGGAUCACCCAUGUAGGAUAUCAGCACGAUAAGUGCUGAGAAGGACAACCAGCUC [Denovo 31] | – | – | apparent KD of MS2 coat protein (MS2 coat protein [2]; input ligand: FMN 200 uM): 15.1 nM; apparent KD of MS2 coat protein (MS2 coat protein [2]; input ligand: none): 16.8 nM
GUCAGCUCGUGAGGAUAUACAACACUGCUUCGGCAGUGUAUUAAGAUCACAUGAGGAUCACCCAUGUAGAAGGCACGAGCUGAU (puzzle (switch architecture): Exclusion NG 2) | – | – | apparent KD of MS2 coat protein (MS2 coat protein [3]; input ligand: FMN 200 uM): 240 nM; apparent KD of MS2 coat protein (MS2 coat protein [3]; input ligand: none): 13.9 nM
CCGAUGCAAAUAAAACAUGAGGAUCACCCAUGUGAGUCUCAUGAGGAUAUGCAGGUCAAAGACUUGCAGAAGGCAUGGCGUCGG [Eli sng3 2.08] | 135 | 1370 | –
AAAAUAAAGGCAGGAUAUACAUGAAUAAAUAAUAUAAUAUAUAAUAAAACAUGAGGAUCACCCAUGUAGAAGGGCCAAAAUAAA [LRO024_Exclusion NG 2] | – | – | apparent KD of MS2 coat protein (MS2 coat protein [2]; input ligand: FMN 200 uM): 107 nM; apparent KD of MS2 coat protein (MS2 coat protein [2]; input ligand: none): 72.3 nM
AAUAUAAGAGCUGGAAAUAAACUCACAUGAGGAUCACCCAUGUAGGAUAUCAGCACGAUAAGUGCUGAGAAGGACAUCCAGCUC [Denovo 56] | – | – | apparent KD of MS2 coat protein (MS2 coat protein [2]; input ligand: FMN 200 uM): 14.7 nM; apparent KD of MS2 coat protein (MS2 coat protein [2]; input ligand: none): 16.4 nM
UGAUCGCUUGGAGGAUAUCCAACUAUCCUAGUUGGAGAAGGCCAAGCUACAGAGCUAAGCUUGGAAGUCACUUCGAAUCAACAC [pwkr Chip 1 Control 70 ssNG1 F9.4] | 64.8 | 53.6 | –
GGAGAUACAUGAGGAUCACCCAUGUAGGAUAUCGGGCCCGGGCCCGGCGAAAGCCGGGCCCGGGCCGAGAAGGGCGUACACACC [#LOL-2] (puzzle (switch architecture): Small Loop Exclusion NG 3) | – | – | apparent KD of MS2 coat protein (MS2 coat protein [3]; input ligand: FMN 200 uM): 5.79 nM; apparent KD of MS2 coat protein (MS2 coat protein [3]; input ligand: none): 7.3 nM
GCACUGGAUGUAGGAUAUCAGGACGAUAAGUCCUGAGAAGGACAUGAGGAUCACCCAUGUGCCAAAACCAGUGCAUAUAAUAUA [Denovo Exng1 33] | – | – | apparent KD of MS2 coat protein (MS2 coat protein [2]; input ligand: FMN 200 uM): 16.9 nM; apparent KD of MS2 coat protein (MS2 coat protein [2]; input ligand: none): 12.5 nM
CCGAUUAGCACAGGAUAUGGGAGUUCGUAGCUCCCAGAAGGGUGAGCCAAUACAUGAGGAUCACCCAUGUGCGGUAGGUCAGGA [Energe] | 56 | 57.1 | –
GUCACGGUUAAUUCCGUGACGCGCAAUCCUUGAGGAUCACCCAAGGAUAUCGACGUCAAUGACGUCGAGAAGGUGGUUGAGCGC [#SharedSequence2] (puzzle (switch architecture): Exclusion NG 3) | – | – | apparent KD of MS2 coat protein (MS2 coat protein [3]; input ligand: FMN 200 uM): 23.5 nM; apparent KD of MS2 coat protein (MS2 coat protein [3]; input ligand: none): 13.6 nM
